Assay results: the supplement of paper PMC10126150
± gives the standard deviation of the averaged measurements.

system: ATP; assay: switch fluorescence ratio, 500 uM ATP over buffer (Cy3 cluster intensity, sum of 5 cycles each) (fold (ratio)); higher = stronger signal-on switching upon ATP binding; sequences stand for … in TCGTCGGCAGCGTCAGATGTGTATAAGAGACAGTTTTTTTTTTTTTTTTTTTTTTTTT…TC; conditions: aptamer strand: ATP DNA aptamer (quencher-CACCTGGGGGAGTATTGCGGAGGAAGG + anchor), 100 nM annealed; ATP concentration: 500 uM
Summary of the method: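 The quencher-labelled ATP aptamer, at 100 nM, was annealed to Cy3-labelled switching-strand clusters on a modified Illumina MiSeq flow-cell. The clusters were imaged in selection buffer, then after 15 min with 500 uM ATP at 22 °C, and this buffer/ATP cycle ran five times with NaOH stripping and re-annealing between runs. Per-cluster fluorescence ratios, summed target-cycle over summed buffer-cycle Cy3 intensity, were averaged per switch-domain sequence. Clusters outside 100-1000 RFU were excluded.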
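Note: ATP exposure 15 min at 22 °C before imaging.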

Row | Sequence | switch fluorescence ratio
1 | AGCGTCTTGC | 1.01 ± 0.059
2 | TTATATGTGT | 1.01 ± 0.039
3 | CCTGGGGATC | 1.15 ± 0.098
4 | TCGTCCTTTT | 0.976 ± 0.03
5 | GTTTTAGCTG | 0.986 ± 0.059
6 | GTGTGGGT | 1.002 ± 0.0028
7 | TTTTAAATTT | 1.01 ± 0.11
8 | GGTTAGGGG | 0.99 ± 0.028
9 | GGGCTAGGAG | 0.987 ± 0.014
10 | TCCAGCGCGG | 1.14 ± 0.015
11 | GGTTAGGCGC | 0.993 ± 0.012
12 | ATCATGCATT | 0.989 ± 0.025
13 | ACGTTACTCA | 1.5 ± 0.032
14 | TGCATTCAGG | 1.02 ± 0.03
15 | TATAAGGATC | 0.982 ± 0.057
16 | TCCTCACTGT | 1.18 ± 0.034
17 | AATCCGGGGC | 2.35 ± 1.6
18 | AAAGTGTCGT | 0.973 ± 0.028
19 | GGGGGGGGCG | 1.01 ± 0.052
20 | ACAAGGGTC | 0.964 ± 0.025
21 | GGAAAAATGA | 1 ± 0.034
22 | TTTAGAAGGT | 0.995 ± 0.026
23 | TGGGGGTAAC | 1.1 ± 0.18

Row | Sequence | switch fluorescence ratio
24 | GGTTTATGGG | 0.975 ± 0.037
25 | GAGGTAAAGC | 1 ± 0.08
26 | CGAGGGGATT | 1.25 ± 0.54
27 | ATATTTGGGC | 0.975 ± 0.034
28 | AGAAAGAAAA | 0.993 ± 0.09
29 | CTTTAGATGT | 0.98 ± 0.034
30 | CGGGGTTACT | 0.9961 ± 0.0082
31 | TACATCATCG | 1.14 ± 0.016
32 | AGACGGCAGC | 0.992 ± 0.035
33 | CCGCTCGGGG | 1.05 ± 0.053
34 | GAGGATCAGG | 1.03 ± 0.056
35 | TCTGGGTGGA | 0.994 ± 0.015
36 | TTAGCGTTTT | 1.16 ± 0.25
37 | TCAGCGTGTG | 1.0181 ± 0.00046
38 | CCGTTTAGAT | 1.01 ± 0.011
39 | CGCAGCCAGG | 3.33 ± 0.27
40 | AAGGGGCCGA | 0.994 ± 0.034
41 | GGGGTAGTCA | 1 ± 0.035
42 | GTTTTAGTCC | 1.01 ± 0.025
43 | TTAGTAGTGC | 1.02 ± 0.035
44 | TGAATTTTGT | 0.978 ± 0.036
45 | ACGGGGTTTT | 1.01 ± 0.017
46 | GTTGAACAGT | 1.01 ± 0.065

Row | Sequence | switch fluorescence ratio
47 | TAGGTAGTTG | 0.952 ± 0.051
48 | GCGATAAACC | 1.1929 ± 0.00026
49 | AAAATGCGCT | 0.975 ± 0.013
50 | TTGCGGTATG | 0.986 ± 0.022
51 | GGGTTGGGAG | 0.998 ± 0.044
52 | TCGGTGGAGA | 1.01 ± 0.024
53 | TTTTTAAAAA | 1.01 ± 0.059
54 | TACAGGCGTA | 0.9955 ± 0.0069
55 | TATCGGCTGG | 1.01 ± 0.025
56 | AACTAGCCGG | 0.961 ± 0.025
57 | TAAGAGCTGA | 0.985 ± 0.023
58 | GTTGGGGCGA | 1.02 ± 0.076
59 | CAGTCGGAGA | 1.02 ± 0.037
60 | TTTCGGCTAT | 1.12 ± 0.15
61 | CAATGTGGGG | 0.989 ± 0.056
62 | TAGGTGGTTG | 1 ± 0.03
63 | TCAGGTCTGT | 0.9958 ± 0.0074
64 | TCGCAGGCCT | 1.033 ± 0.003
65 | TTAGAACTCC | 1.05 ± 0.036
66 | GTTGGAAGAG | 0.957 ± 0.051
67 | TAATCGCCTG | 0.981 ± 0.034
68 | ACGGTAGAAC | 1.04 ± 0.021
69 | GCAAAAAGGT | 0.996 ± 0.029

Row | Sequence | switch fluorescence ratio
70 | TTGTGATTTT | 1.02 ± 0.048
71 | TAGTAATGGT | 1.032 ± 0.0084
72 | TGCAGTGGGG | 1.014 ± 0.0085
73 | TGGGCTGCTT | 0.965 ± 0.017
74 | CATCTGGGCA | 1.03 ± 0.013
75 | CAATGGGTCT | 0.9523 ± 0.0028
76 | TAGCGATTGT | 1.02 ± 0.062
77 | CCGTCTGTTG | 1.03 ± 0.029
78 | TTTCTAGTCG | 0.971 ± 0.019
79 | ATGTAAAGCA | 1.02 ± 0.036
80 | GTGGTGAGGA | 0.953 ± 0.038
81 | GCGATATCTT | 1.04 ± 0.029
82 | CGAGATGTGG | 1.02 ± 0.011
83 | TGGGATAGAG | 1 ± 0.021
84 | GCTCTTGTTC | 0.9975 ± 0.0083
85 | AGTAAAGGGA | 1.02 ± 0.029
86 | CCTTGGCCGA | 1.17 ± 0.0041
87 | TTTAGTGAGG | 0.974 ± 0.03
88 | ATATGTTTG | 0.973 ± 0.047
89 | AACAAGCTAT | 1.03 ± 0.055
90 | ATTCGCGAGG | 0.982 ± 0.027
91 | GCAAAAGGAA | 0.975 ± 0.022
92 | GTGGGGTCGA | 1.01 ± 0.04

Row | Sequence | switch fluorescence ratio
93 | ATGGGAGGAT | 1.018 ± 0.0027
94 | GGTCGGGCTT | 1.01 ± 0.034
95 | GGATGAAGGG | 0.981 ± 0.022
96 | GAGTATTAGG | 1.02 ± 0.0094
97 | AAATTGTTTG | 0.989 ± 0.041
98 | CTGTCCTAAT | 1.009 ± 0.0049
99 | TCAATTCGAG | 0.9884 ± 0.009
100 | CATCTCGTTT | 1.02 ± 0.042
101 | TACGAATCTG | 1.03 ± 0.019
102 | TTGTTCGGAG | 1.0006 ± 0.00036
103 | GTTTCTTTCG | 1.01 ± 0.067
104 | AGTGGTTAGT | 1.05 ± 0.027
105 | TACCGGTGTC | 1.06 ± 0.047
106 | GAACAATGGG | 0.977 ± 0.03
107 | TAAAGGGTGG | 0.987 ± 0.032
108 | CCTATTAGG | 1 ± 0.011
109 | TCATATTTTT | 1.006 ± 0.0064
110 | GGGTTATCGG | 0.967 ± 0.041
111 | GACTGACTGG | 0.996 ± 0.018
112 | ACGCGCGTCG | 1 ± 0.063
113 | CCTAGGTCAT | 1.12 ± 0.15
114 | CGATATAGAC | 1.06 ± 0.013
115 | AGGGTAAAGG | 0.989 ± 0.019

Row | Sequence | switch fluorescence ratio
116 | ATTAAATAAC | 1.02 ± 0.02
117 | TTGCCATTGG | 0.9905 ± 0.0062
118 | TACATGGTTT | 1.01 ± 0.032
119 | ATTCATTGGG | 0.9872 ± 0.0075
120 | AATTTAATAT | 1.01 ± 0.016
121 | AAGCGGCTTC | 0.988 ± 0.013
122 | AAATGGGTGA | 1.05 ± 0.017
123 | TACGGGGGCG | 1.01 ± 0.1
124 | GTGCTTGGCC | 1 ± 0.047
125 | TCGTTCAGTA | 0.958 ± 0.014
126 | GAATATATTT | 0.993 ± 0.019
127 | AAATTTGGTA | 1.04 ± 0.021
128 | AGGTTTGCTA | 0.959 ± 0.017
129 | TTTCTGGTTT | 1 ± 0.016
130 | GCTGTGATA | 0.976 ± 0.019
131 | GCCAGGGATT | 1.01 ± 0.029
132 | AACCTGGGGA | 1.12 ± 0.19
133 | TGACACAGGA | 1.04 ± 0.024
134 | GAGATAGTAG | 1 ± 0.015
135 | TACAGACGAT | 1.3 ± 0.068
136 | CGGGTTTTCC | 1.03 ± 0.042
137 | TGCGGATGTT | 0.953 ± 0.013
138 | TGAGGGGGCG | 1.03 ± 0.11

Row | Sequence | switch fluorescence ratio
139 | GGGGATATTC | 1 ± 0.023
140 | AGTTGATGGT | 0.96898 ± 0.00096
141 | TAGTGTCAGG | 0.988 ± 0.038
142 | CCGTGTATTT | 1.05 ± 0.052
143 | ATAGAGAGAG | 1.02 ± 0.014
144 | TTTGATAGTT | 1.01 ± 0.018
145 | CAGAGATCAT | 0.993 ± 0.019
146 | CGGGATGACA | 0.979 ± 0.046
147 | CGTTTTCGGG | 1.02 ± 0.016
148 | GCACGGGGAA | 1.02 ± 0.028
149 | TTATATGTAG | 0.993 ± 0.024
150 | TGCTGGTTGG | 0.998 ± 0.026
151 | AGGGTATGAT | 0.99 ± 0.025
152 | CTTGTTGTTT | 1.03 ± 0.15
153 | CCCCGGGTAA | 1.33 ± 0.012
154 | AAGGATGTGT | 0.98 ± 0.012
155 | GGTCTTAGTT | 0.987 ± 0.035
156 | CCGATGAGCT | 1.42 ± 0.035
157 | TTGTAGCACG | 1.07 ± 0.037
